Test results taken from US20220401484A1 (BIONTECH, published 2022).
Each block holds one binder with its values, some of them ahead of it.

How the values were obtained:
[1] = target: PRAME peptide … presented by the HLA-A*02:01-encoded molecule (human); test: cell-based or functional assay
[2] = target: T1, PRAME peptide on HLA-A*02:01 (human); test: IFN-gamma immunoassay; general statement of the description and claim 4; the same paragraph says preferably less than 10^-8 M (FIG. 2); full-length, on cells
T1 peptide: SLLQHLIGL

[3] = target: T2, irrelevant peptide peptide on HLA-A*02:01 (human); test: cytokine release
T2 peptide: GLSNTHVL

[4] = target: T3, PRAME peptide on HLA-A*02:02 (human); test: cytokine release
T3 peptide: SLLQHLIGL

[5] = target: T4, PRAME peptide on HLA-A*02:04 (human); test: cytokine release
T4 peptide: SLLQHLIGL

EC50 value of the relative IFN-gamma release (peptide concentration on T2 cells) [1]: 11.6 nM
B1: TCR T23.8-2.1-027-004 (TCR, V domains shown)
V domain 1: GQQLNQSPQSMFIQEGEDVSMNCTSSSIFNTWLWYKQDPGEGPVLLIALYKAGELTSNGRLTAQFGITRKDSFLNISASIPSDVGIYFCAGLADYGGSQGNLIFGKGTKLSVKP
V domain 2: DSGVTQTPKHLITATGQRVTLRCSPRSGDLSVYWYQQSLDQGLQFLIQYYNGEERAKGNILERFSAQQFPDLHSELNLSSLELGDSALYFCASSVWASGGYEQYFGPGTRLTVTE

EC50 of peptide [2]: < 100 nM
binding result [3]: no recognition
binding result [4]: recognises
binding result [5]: recognises
B2: TCR T23.8-2.1-027-004 (TCR, V domains shown)
Valpha: B1 V domain 1
Vbeta: DSGVTQTPKHLITATGQRVTLRCSPRSGDLSVYWYQQSLDQGLQFLIQYYNGEERAKGNILERFSAQQFPDLHSELNLSSLELGDSALYFCASSVWASGGYEQYFGPGTRLTVT
